Reference: publication PMC9317961, “Deafness-related protein PDZD7 forms complex with the C-terminal tail of FCHSD2” (Biochemical Journal, 2022)
Blank lines part the entries; values can stand above or below the binder they belong to.

Key:
[1] = target: T1, PDZD7 PDZ3 (a.a. 842-946) (mouse, UniProt E9Q9W7 842-946); experiment: ITC; MicroCal iTC200, 25°C; ~500 μM protein in the syringe titrated into ~50 μM partner in the cell; one-site binding model; conditions: both partners purified
T1 construct: As used in ITC; also called WT PDZD7 PDZ3; source: E. coli BL21 (DE3), purified (nickel-NTA, SEC); not shown: Trx (from the vector pET.32M.3C)
T1 sequence (looked up): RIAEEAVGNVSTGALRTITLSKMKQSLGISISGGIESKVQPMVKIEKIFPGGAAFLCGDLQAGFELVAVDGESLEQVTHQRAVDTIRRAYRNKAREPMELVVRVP

Trx-tagged PDZD7 PDZ3 = target: T2, Trx-tagged PDZD7 PDZ3 (mouse, UniProt E9Q9W7 842-946); experiment: SEC-MALS; Superose 12 10/300 GL column, miniDAWN and Optilab detectors; ~300 μl of 50 μM protein loaded; Trx-tagged proteins alone and mixed; conditions: both partners purified
T2 construct: As used in SEC-MALS, thioredoxin tag kept; monomer by SEC-MALS; also called Trx-PDZD7 PDZ3; source: E. coli BL21 (DE3), purified (nickel-NTA, SEC)
T2 sequence (looked up): T1 sequence (looked up)

Kd [1]: ~1510 nM
B1: FCHSD2 tail (a.a. 729-740) (peptide, UniProt Q3USJ8 729-740, looked up)
chain: TEKMEDVEITLV
notes: As used in ITC; also called WT FCHSD2 tail; source: E. coli BL21 (DE3), purified (nickel-NTA, SEC)

stoichiometry N (Trx-tagged PDZD7 PDZ3): 1
B2: Trx-tagged FCHSD2 tail (peptide, UniProt Q3USJ8 729-740, looked up)
chain: TEKMEDVEITLV
notes: FCHSD2, residues 729-740; As used in SEC-MALS, thioredoxin tag kept; monomer by SEC-MALS; also called Trx-FCHSD2 tail; source: E. coli BL21 (DE3), purified (nickel-NTA, SEC)
